Measurements published in patent US20160311868A1.

Tests used:
[1] = molecular target: TgMyoA heavy chain with C-terminal Bio-tag and FLAG-tag (TgMyoA-cBio-cFLAG) (Toxoplasma gondii) (UniProt O00934); test: cell-based or functional assay

Row | Substance | Km for actin, steady-state actin-activated ATPase (skeletal muscle actin) | speed of actin movement, in vitro motility assay (TgMyoA with TgMLC1 only) [1]
1 | TgMyoA expressed with both light chains (TgMyoA heavy chain with bound TgMLC1 and TgELC1) | a Km for actin of 136±22 µM at 30 °C | 
2 | TgMLC1, Toxoplasma gondii myosin light chain MLC1 (regulatory light chain), untagged |  | 1.5 µm/s
